Laboratory results: paper PMC13638050

Experiments:
[1] = molecular target: H3N2 A/Singapore/INFIMH-16-0019/2016 (H3/Sing16) HA (influenza A virus H3N2 A/Singapore/INFIMH-16-0019/2016); assay: BLI
[2] = molecular target: influenza B/Lee/1940 (B/Lee40) HA (influenza B virus B/Lee/1940); assay: BLI
influenza B/Lee/1940 (B/Lee40) HA (influenza B virus B/Lee/1940), sequence (P03460 16-552 limits assumed): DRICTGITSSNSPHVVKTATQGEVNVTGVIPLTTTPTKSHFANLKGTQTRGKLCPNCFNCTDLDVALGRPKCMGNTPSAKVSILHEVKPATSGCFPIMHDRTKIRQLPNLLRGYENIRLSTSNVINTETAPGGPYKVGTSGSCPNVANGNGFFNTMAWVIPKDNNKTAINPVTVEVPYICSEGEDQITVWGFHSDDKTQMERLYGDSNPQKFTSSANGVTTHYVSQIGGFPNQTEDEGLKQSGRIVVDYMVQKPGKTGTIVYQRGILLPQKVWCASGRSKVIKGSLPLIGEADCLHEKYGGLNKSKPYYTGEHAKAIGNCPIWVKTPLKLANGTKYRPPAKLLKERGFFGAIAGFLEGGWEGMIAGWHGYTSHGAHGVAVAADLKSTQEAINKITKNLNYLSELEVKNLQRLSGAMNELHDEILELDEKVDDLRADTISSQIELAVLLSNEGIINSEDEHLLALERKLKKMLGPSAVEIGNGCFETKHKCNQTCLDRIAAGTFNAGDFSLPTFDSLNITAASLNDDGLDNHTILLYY

Q: What does the source list for somatic CR9114 Fab?
A: Kd [1]: 36 nM; Kd [2]: 110 nM
